According to patent US10967068B2, “Stability-modulating linkers for use with antibody drug conjugates” (priority 2014, dated 2021):
*1 amine or outer side, *2 acyl side, *3 side chain or, on linkers, in order; H or OH if unused. Where a SMILES comes first, the peptide text is derived from it. [ ]: non-standard residue; d: D form. The star is where a group is joined. Dolaproine = CO[C@@H]([C@@H]1CCCN1)[C@@H](C)C(=O)O; Acetyl(2-(4-imidazolyl)) = O=C(Cc1c[nH]cn1)*; Dil = CC[C@H](C)[C@H](NC)[C@@H](CC(=O)O)OC; Imidazole4carbonyl = O=C(c1cnc[nH]1)*; PABC = O=C(OCc1ccc(N[*:1])cc1)[*:2]; Doe = c1ccc(C[C@H](N*)c2nccs2)cc1; Cit = NC(=O)NCCC[C@H](N)C(=O)O; Isobutyryl = CC(C)C(=O)*; PhAc = O=C(Cc1ccccc1)*; Me2Gly = CN(C)CC(=O)*; Aib = CC(C)(N)C(=O)O; CO = O=C([*:1])[*:2]; Piv = CC(C)(C)C(=O)*; Glycolyl = O=C(CO)*; Sar = CNCC(=O)O

Assay: In Vitro Stability Assay—Mouse Plasma
Type: in vitro ADME
Details: for Conjugate stability (%): % DAR remaining after plasma 3 or 4.5 days; for DAR: before plasma incubation

## CC[C@H](C)[C@@H]([C@@H](CC(=O)N1CCC[C@H]1[C@H](OC)[C@@H](C)C(=O)N[C@@H](Cc1ccccc1)c1nccs1)OC)N(C)C(=O)[C@@H](NC(=O)C(C)(C)NC(=O)OCc1ccc(NC(=O)[C@H](CCCNC(N)=O)NC(=O)[C@@H](NC(=O)[C@H](CCCCN)NC(=O)C(C)(C)C)C(C)C)cc1)C(C)C [Example 2, N˜2˜-(2,2-Dimethylpropanoyl)-L-lysyl-L-valyl-N-{4-[(8S,11S,12R)-11-[(2S)-butan-2-yl]-12-(2-{(2S)-2-[(1R,2R)-1-methoxy-2-methyl-3-oxo-3-{[(1S)-2-phenyl-1-(1,3-thiazol-2-yl)ethyl]amino}propyl]pyrrolidin-1-yl}-2-oxoethyl)-5,5,10-trimethyl-3,6,9-trioxo-8-(propan-2-yl)-2,13-dioxa-4,7,10-triazatetradec-1-yl]phenyl}-N˜5˜-carbamoyl-L-ornithinamide] (Piv-KV[Cit][PABC][Aib]V[Dil][Dolaproine]-Doe)
Attachment position L11B
  DAR after plasma incubation for 3 to 4.5 days: 0
  Conjugate stability (%): 0%
  DAR: 1.54

## CC[C@H](C)[C@@H]([C@@H](CC(=O)N1CCC[C@H]1[C@H](OC)[C@@H](C)C(=O)N[C@@H](Cc1ccccc1)c1nccs1)OC)N(C)C(=O)[C@@H](NC(=O)C(C)(C)NC(=O)OCc1ccc(NC(=O)[C@H](CCCNC(N)=O)NC(=O)[C@@H](NC(=O)[C@H](CCCCN)NC(=O)Cc2ccccc2)C(C)C)cc1)C(C)C [Example 3, N˜2˜-(Phenylacetyl)-L-lysyl-L-valyl-N-{4-[(8S,11S,12R)-11-[(2S)-butan-2-yl]-12-(2-{(2S)-2-[(1R,2R)-1-methoxy-2-methyl-3-oxo-3-{[(1S)-2-phenyl-1-(1,3-thiazol-2-yl)ethyl]amino}propyl]pyrrolidin-1-yl}-2-oxoethyl)-5,5,10-trimethyl-3,6,9-trioxo-8-(propan-2-yl)-2,13-dioxa-4,7,10-triazatetradec-1-yl]phenyl}-N˜5˜-carbamoyl-L-ornithinamide] (PhAc-KV[Cit][PABC][Aib]V[Dil][Dolaproine]-Doe)
Attachment position L11B
  DAR after plasma incubation for 3 to 4.5 days: 0
  Conjugate stability (%): 0%
  DAR: 1.66

## CC[C@H](C)[C@@H]([C@@H](CC(=O)N1CCC[C@H]1[C@H](OC)[C@@H](C)C(=O)N[C@@H](Cc1ccccc1)c1nccs1)OC)N(C)C(=O)[C@@H](NC(=O)C(C)(C)NC(=O)OCc1ccc(NC(=O)[C@H](CCCNC(N)=O)NC(=O)[C@@H](NC(=O)[C@H](CCCCN)NC(=O)c2cnc[nH]2)C(C)C)cc1)C(C)C [Example 4, N˜2˜-(1H-Imidazol-5-ylcarbonyl)-L-lysyl-L-valyl-N-{4-[(8S,11S,12R)-11-[(2S)-butan-2-yl]-12-(2-{(2S)-2-[(1R,2R)-1-methoxy-2-methyl-3-oxo-3-{[(1S)-2-phenyl-1-(1,3-thiazol-2-yl)ethyl]amino}propyl]pyrrolidin-1-yl}-2-oxoethyl)-5,5,10-trimethyl-3,6,9-trioxo-8-(propan-2-yl)-2,13-dioxa-4,7,10-triazatetradec-1-yl]phenyl}-N˜5˜-carbamoyl-L-ornithinamide] (Imidazole4carbonyl-KV[Cit][PABC][Aib]V[Dil][Dolaproine]-Doe)
Attachment position H16
  DAR after plasma incubation for 3 to 4.5 days: 1.89
  Conjugate stability (%): 100%
  DAR: 1.84

## CC[C@H](C)[C@@H]([C@@H](CC(=O)N1CCC[C@H]1[C@H](OC)[C@@H](C)C(=O)N[C@@H](Cc1ccccc1)c1nccs1)OC)N(C)C(=O)[C@@H](NC(=O)C(C)(C)NC(=O)OCc1ccc(NC(=O)[C@H](CCCNC(N)=O)NC(=O)[C@@H](NC(=O)[C@H](CCCCN)NC(=O)Cc2cnc[nH]2)C(C)C)cc1)C(C)C [Example 5, N˜2˜-(1H-Imidazol-5-ylacetyl)-L-lysyl-L-valyl-N-{4-[(8S,11S,12R)-11-[(2S)-butan-2-yl]-12-(2-{(2S)-2-[(1R,2R)-1-methoxy-2-methyl-3-oxo-3-{[(1S)-2-phenyl-1-(1,3-thiazol-2-yl)ethyl]amino}propyl]pyrrolidin-1-yl}-2-oxoethyl)-5,5,10-trimethyl-3,6,9-trioxo-8-(propan-2-yl)-2,13-dioxa-4,7,10-triazatetradec-1-yl]phenyl}-N˜5˜-carbamoyl-L-ornithinamide] ({Acetyl(2-(4-imidazolyl))}-KV[Cit][PABC][Aib]V[Dil][Dolaproine]-Doe)
Attachment position H16
  DAR after plasma incubation for 3 to 4.5 days: 2.0
  Conjugate stability (%): 100%
  DAR: 1.96

## CC[C@H](C)[C@@H]([C@@H](CC(=O)N1CCC[C@H]1[C@H](OC)[C@@H](C)C(=O)N[C@@H](Cc1ccccc1)c1nccs1)OC)N(C)C(=O)[C@@H](NC(=O)C(C)(C)NC(=O)OCc1ccc(NC(=O)[C@H](CCCNC(N)=O)NC(=O)[C@@H](NC(=O)[C@H](CCCCN)NC(=O)C(C)C)C(C)C)cc1)C(C)C [Example 7, N˜2˜-(2-Methylpropanoyl)-L-lysyl-L-valyl-N-{4-[(8S,11S,12R)-11-[(2S)-butan-2-yl]-12-(2-{(2S)-2-[(1R,2R)-1-methoxy-2-methyl-3-oxo-3-{[(1S)-2-phenyl-1-(1,3-thiazol-2-yl)ethyl]amino}propyl]pyrrolidin-1-yl}-2-oxoethyl)-5,5,10-trimethyl-3,6,9-trioxo-8-(propan-2-yl)-2,13-dioxa-4,7,10-triazatetradec-1-yl]phenyl}-N˜5˜-carbamoyl-L-ornithinamide] (Isobutyryl-KV[Cit][PABC][Aib]V[Dil][Dolaproine]-Doe)
Attachment position L11B
  DAR after plasma incubation for 3 to 4.5 days: 0
  Conjugate stability (%): 0%
  DAR: 1.51

## CC[C@H](C)[C@@H]([C@@H](CC(=O)N1CCC[C@H]1[C@H](OC)[C@@H](C)C(=O)N[C@@H](Cc1ccccc1)c1nccs1)OC)N(C)C(=O)[C@@H](NC(=O)C(C)(C)NC(=O)OCc1ccc(NC(=O)[C@H](CCCNC(N)=O)NC(=O)[C@@H](NC(=O)[C@H](CCCCN)NC(=O)CO)C(C)C)cc1)C(C)C [Example 25, N˜2˜-(hydroxyacetyl)-L-lysylvalyl-N-{4-[(8S,11S,12R)-11-[(2S)-butan-2-yl]-12-(2-{(2S)-2-[(1R,2R)-1-methoxy-2-methyl-3-oxo-3-{[(1S)-2-phenyl-1-(1,3-thiazol-2-yl)ethyl]amino}propyl]pyrrolidin-1-yl}-2-oxoethyl)-5,5,10-trimethyl-3,6,9-trioxo-8-(propan-2-yl)-2,13-dioxa-4,7,10-triazatetradec-1-yl]phenyl}-N˜5˜-carbamoyl-L-ornithinamide] (Glycolyl-KV[Cit][PABC][Aib]V[Dil][Dolaproine]-Doe)
Attachment position L11B
  Conjugate stability (%): 84%
  DAR: 1.91

## CC[C@H](C)[C@@H]([C@@H](CC(=O)N1CCC[C@H]1[C@H](OC)[C@@H](C)C(=O)N[C@@H](Cc1ccccc1)c1nccs1)OC)N(C)C(=O)[C@@H](NC(=O)C(C)(C)NC(=O)OCc1ccc(NC(=O)[C@H](CCCNC(N)=O)NC(=O)[C@@H](NC(=O)[C@H](CCCCN)NC(=O)NC)C(C)C)cc1)C(C)C [Example 26, N˜2˜-(methylcarbamoyl)-L-lysylvalyl-N-{4-[(8S,11S,12R)-11-[(2S)-butan-2-yl]-12-(2-{(2S)-2-[(1R,2R)-1-methoxy-2-methyl-3-oxo-3-{[(1S)-2-phenyl-1-(1,3-thiazol-2-yl)ethyl]amino}propyl]pyrrolidin-1-yl}-2-oxoethyl)-5,5,10-trimethyl-3,6,9-trioxo-8-(propan-2-yl)-2,13-dioxa-4,7,10-triazatetradec-1-yl]phenyl}-N˜5˜-carbamoyl-L-ornithinamide] ({NHMe-CO}-KV[Cit][PABC][Aib]V[Dil][Dolaproine]-Doe)
Attachment position L11B
  DAR after plasma incubation for 3 to 4.5 days: 1.16
  Conjugate stability (%): 60%
  DAR: 1.92

## CC[C@H](C)[C@@H]([C@@H](CC(=O)N1CCC[C@H]1[C@H](OC)[C@@H](C)C(=O)N[C@@H](Cc1ccccc1)c1nccs1)OC)N(C)C(=O)[C@@H](NC(=O)C(C)(C)NC(=O)OCc1ccc(NC(=O)[C@H](CCCNC(N)=O)NC(=O)[C@@H](NC(=O)[C@H](CCCCN)NC(=O)CNC)C(C)C)cc1)C(C)C [Example 27, N-methylglycyl-L-lysylvalyl-N-{4-[(8S,11S,12R)-11-[(2S)-butan-2-yl]-12-(2-{(2S)-2-[(1R,2R)-1-methoxy-2-methyl-3-oxo-3-{[(1S)-2-phenyl-1-(1,3-thiazol-2-yl)ethyl]amino}propyl]pyrrolidin-1-yl}-2-oxoethyl)-5,5,10-trimethyl-3,6,9-trioxo-8-(propan-2-yl)-2,13-dioxa-4,7,10-triazatetradec-1-yl]phenyl}-N˜5˜-carbamoyl-L-ornithinamide] (H-[Sar]KV[Cit][PABC][Aib]V[Dil][Dolaproine]-Doe)
Attachment position L11B
  DAR after plasma incubation for 3 to 4.5 days: 0.98
  Conjugate stability (%): 57%
  DAR: 1.72

## CC[C@H](C)[C@@H]([C@@H](CC(=O)N1CCC[C@H]1[C@H](OC)[C@@H](C)C(=O)N[C@@H](Cc1ccccc1)c1nccs1)OC)N(C)C(=O)[C@@H](NC(=O)C(C)(C)NC(=O)OCc1ccc(NC(=O)[C@H](CCCNC(N)=O)NC(=O)[C@@H](NC(=O)[C@H](CCCCN)NC(=O)CN(C)C)C(C)C)cc1)C(C)C [Example 28, N,N-dimethylglycyl-L-lysylvalyl-N-{4-[(8S,11S,12R)-11-[(2S)-butan-2-yl]-12-(2-{(2S)-2-[(1R,2R)-1-methoxy-2-methyl-3-oxo-3-{[(1S)-2-phenyl-1-(1,3-thiazol-2-yl)ethyl]amino}propyl]pyrrolidin-1-yl}-2-oxoethyl)-5,5,10-trimethyl-3,6,9-trioxo-8-(propan-2-yl)-2,13-dioxa-4,7,10-triazatetradec-1-yl]phenyl}-N˜5˜-carbamoyl-L-ornithinamide] (Me2Gly-KV[Cit][PABC][Aib]V[Dil][Dolaproine]-Doe)
Attachment position L11B
  DAR after plasma incubation for 3 to 4.5 days: 0.07
  Conjugate stability (%): 4%
  DAR: 1.83
